Test results as given in IntAct's records for PubMed 24130456.

B1: Ribosomal RNA-processing protein 7 (Saccharomyces cerevisiae), P25368 (parent)
chain: MGIEDISAMKNGFIVVPFKLPDHKALPKSQEASLHFMFAKRHQSSNSNESDCLFLVNLPLLSNIEHMKKFVGQLCGKYDTVSHVEELLYNDEFGLHEVDLSALTSDLMSSTDVNEKRYTPRNTALLKFVDAASINNCWNALKKYSNLHAKHPNELFEWTYTTPSFTTFVNFYKPLDIDYLKEDIHTHMAIFEQREAQAQEDVQSSIVDEDGFTLVVGKNTKSLNSIRKKILNKNPLSKHENKAKPISNIDKKAKKDFYRFQVRERKKQEINQLLSKFKEDQERIKVMKAKRKFNPYT
partner: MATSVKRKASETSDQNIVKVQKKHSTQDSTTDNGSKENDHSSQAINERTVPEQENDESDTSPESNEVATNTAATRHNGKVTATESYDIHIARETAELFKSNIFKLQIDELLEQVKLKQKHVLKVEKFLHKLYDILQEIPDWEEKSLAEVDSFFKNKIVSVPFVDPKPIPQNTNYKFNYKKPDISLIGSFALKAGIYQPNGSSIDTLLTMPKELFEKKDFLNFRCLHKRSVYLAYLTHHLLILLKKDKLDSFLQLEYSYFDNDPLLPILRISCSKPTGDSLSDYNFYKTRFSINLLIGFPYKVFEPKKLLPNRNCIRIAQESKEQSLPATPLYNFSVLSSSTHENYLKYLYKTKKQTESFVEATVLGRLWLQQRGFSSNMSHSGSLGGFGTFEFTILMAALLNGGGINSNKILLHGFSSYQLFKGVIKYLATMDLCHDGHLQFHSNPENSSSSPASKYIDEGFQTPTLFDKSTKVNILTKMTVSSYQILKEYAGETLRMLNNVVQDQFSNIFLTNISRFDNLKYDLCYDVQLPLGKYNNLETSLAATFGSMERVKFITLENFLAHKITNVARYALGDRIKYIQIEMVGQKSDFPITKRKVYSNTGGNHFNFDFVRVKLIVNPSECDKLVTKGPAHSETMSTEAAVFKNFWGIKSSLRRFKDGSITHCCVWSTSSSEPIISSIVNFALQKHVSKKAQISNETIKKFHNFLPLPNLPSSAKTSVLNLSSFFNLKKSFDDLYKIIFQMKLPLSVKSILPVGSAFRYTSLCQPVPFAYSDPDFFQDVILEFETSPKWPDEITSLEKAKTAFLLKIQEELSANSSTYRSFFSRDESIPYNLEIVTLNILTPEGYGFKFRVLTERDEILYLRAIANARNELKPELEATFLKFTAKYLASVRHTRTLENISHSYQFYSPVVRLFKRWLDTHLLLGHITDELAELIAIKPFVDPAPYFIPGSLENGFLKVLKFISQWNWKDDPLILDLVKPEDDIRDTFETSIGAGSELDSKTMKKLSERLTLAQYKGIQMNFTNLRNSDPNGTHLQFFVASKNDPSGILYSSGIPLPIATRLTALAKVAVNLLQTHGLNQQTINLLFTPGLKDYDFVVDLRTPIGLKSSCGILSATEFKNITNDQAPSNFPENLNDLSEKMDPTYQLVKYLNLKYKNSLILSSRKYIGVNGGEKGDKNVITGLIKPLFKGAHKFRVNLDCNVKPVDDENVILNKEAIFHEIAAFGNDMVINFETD

Variants of: B1
Conditions: with utp22_yeast UTP22, P53254
With F38D the “effect of a mutation on the interaction” value was “disrupting interaction strength”.
